For data set [1], the target named is TLR4-TMICL (transmembrane domain and whole intracellular linker region of human TLR4, residues 624-670) (human). The experiment in a line: NMR titration; 1H,15N-TROSY spectra at various lipid(detergent)-to-protein ratios (LPR) in DPC micelles; populations of the states from cross-peak intensities; 45 °C; 20 mM phosphate buffer pH 6.0-6.5; monomer, dimer and higher oligomer.

Data set [2] deals with His657 (UniProt position 657, …). The experiment in a line: NMR. The following applies: 45 °C (Methods: all NMR experiments), supplementary figure captions for the same samples state 40 °C, not stated (20 mM phosphate, no added salt mentioned), Monomeric, helical, membrane-mimetic-embedded TLR4-TMICL in anionic bicelles.
Data set [3] deals with the molecule itself. The experiment in a line: NMR titration; 1H,15N-TROSY spectra at various lipid(detergent)-to-protein ratios (LPR) in DPC micelles; populations of the states from cross-peak intensities; 45 °C; 20 mM phosphate buffer pH 6.0-6.5; monomer, dimer and higher oligomer.

Here are results for three molecules from publication PMC5537299, “Spatial structure of TLR4 transmembrane domain in bicelles provides the insight into the receptor activation mechanism” (Scientific Reports, 2017).

Values joined by “and” are separate entries in the source; they are usually repeats but may differ in a detail not shown here. Equal values may be shown once.

Consider “TLR4-TMICL (transmembrane domain and whole intracellular linker region of human TLR4, residues 624-670) (domain or fragment)”, for which the stoichiometry N in data set [1] is 2 and 3.
Turning to MNITSQMNKTIIGVSVLSVLVVSVVAVLVYKFYFHLLMLAGCIKYGRG, the pKa in data set [2] was 6.16 ± 0.02.

B1: TLR4-TM (transmembrane domain of human TLR4 with the truncated ICL region, residues 624-657) (domain or fragment)
chain: MNITSQMNKTIIGVSVLSVLVVSVVAVLVYKFYFH
notes: not part of the stated range 624-657; human TLR4, predicted (UniProt) transmembrane and several juxtamembrane residues 624-657; 35 residues as printed; uniformly 13C/15N-labelled for NMR; cloned into pET22b by NdeI and HindIII; also called TLR-TM; source: continuous exchange cell-free expression (S30 extract of E. coli Rosetta(DE3)pLysS), as a precipitate; purified by size-exclusion …
Turning to B1, in data set [3], the “stoichiometry N” value was 2 and 3.
